Experimental data taken from the supplement of paper PMC10567573.

B1: RHOBTB2 (parent)
chain: LYTGELDENERDLMHIAHIAELLE

Variants of: B1
Assay: protein stability index of a GFP-peptide fusion (GPS, HEK-293T) (PSI 1-6); higher = more stable
Settings: c terminus: a fixed tail appended
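Further: lentivirally expressed fusions sorted by FACS into six bins by GFP to DsRed ratio, PSI derived from sequencing read proportions per bin multiplied by bin number.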

| Variant | protein stability index |
| --- | --- |
| LYTGWLDENERDLMHIAHIAELLE [E5W] | 2.3 |
| LYTGILDENERDLMHIAHIAELLE [E5I] | 1.65 |
| LYTGGLDENERDLMHIAHIAELLE [E5G] | 2.34 |
| LYTGYLDENERDLMHIAHIAELLE [E5Y] | 1.9 |
| LYTGCLDENERDLMHIAHIAELLE [E5C] | 1.67 |
| LYTGFLDENERDLMHIAHIAELLE [E5F] | 2.71 |
| LYTAELDENERDLMHIAHIAELLE [G4A] | 2.31 |
| LYTIELDENERDLMHIAHIAELLE [G4I] | 2.56 |
| LYTWELDENERDLMHIAHIAELLE [G4W] | 1.5 |
| LYTRELDENERDLMHIAHIAELLE [G4R] | 2.29 |
| LYTKELDENERDLMHIAHIAELLE [G4K] | 1.89 |
| LYTNELDENERDLMHIAHIAELLE [G4N] | 2.05 |
| LYTQELDENERDLMHIAHIAELLE [G4Q] | 2.7 |
| LYTHELDENERDLMHIAHIAELLE [G4H] | 1.99 |
| LYTEELDENERDLMHIAHIAELLE [G4E] | 2.32 |
| LYTLELDENERDLMHIAHIAELLE [G4L] | 1.76 |
| LYTYELDENERDLMHIAHIAELLE [G4Y] | 2.2 |
| LYTVELDENERDLMHIAHIAELLE [G4V] | 1.44 |
| LYTMELDENERDLMHIAHIAELLE [G4M] | 1.77 |
| LYTCELDENERDLMHIAHIAELLE [G4C] | 1.87 |
| LYTDELDENERDLMHIAHIAELLE [G4D] | 2.53 |
| LYTFELDENERDLMHIAHIAELLE [G4F] | 1.93 |
| LYTSELDENERDLMHIAHIAELLE [G4S] | 2.42 |
| LYTPELDENERDLMHIAHIAELLE [G4P] | 2.46 |

| Variant | protein stability index |
| --- | --- |
| LYTTELDENERDLMHIAHIAELLE [G4T] | 2.25 |
| TYTGELDENERDLMHIAHIAELLE [L1T] | 2.1 |
| DYTGELDENERDLMHIAHIAELLE [L1D] | 3.08 |
| AYTGELDENERDLMHIAHIAELLE [L1A] | 2.62 |
| CYTGELDENERDLMHIAHIAELLE [L1C] | 2.67 |
| HYTGELDENERDLMHIAHIAELLE [L1H] | 2.61 |
| SYTGELDENERDLMHIAHIAELLE [L1S] | 2.52 |
| NYTGELDENERDLMHIAHIAELLE [L1N] | 2.8 |
| KYTGELDENERDLMHIAHIAELLE [L1K] | 2.49 |
| MYTGELDENERDLMHIAHIAELLE [L1M] | 2.72 |
| FYTGELDENERDLMHIAHIAELLE [L1F] | 3.02 |
| VYTGELDENERDLMHIAHIAELLE [L1V] | 2.8 |
| EYTGELDENERDLMHIAHIAELLE [L1E] | 2.72 |
| GYTGELDENERDLMHIAHIAELLE [L1G] | 2.53 |
| PYTGELDENERDLMHIAHIAELLE [L1P] | 2.92 |
| IYTGELDENERDLMHIAHIAELLE [L1I] | 2 |
| YYTGELDENERDLMHIAHIAELLE [L1Y] | 2.78 |
| RYTGELDENERDLMHIAHIAELLE [L1R] | 2.93 |
| WYTGELDENERDLMHIAHIAELLE [L1W] | 2.43 |
| QYTGELDENERDLMHIAHIAELLE [L1Q] | 3.08 |
| LYCGELDENERDLMHIAHIAELLE [T3C] | 2.31 |
| LYMGELDENERDLMHIAHIAELLE [T3M] | 2.23 |
| LYQGELDENERDLMHIAHIAELLE [T3Q] | 2.58 |
| LYAGELDENERDLMHIAHIAELLE [T3A] | 2.58 |

| Variant | protein stability index |
| --- | --- |
| LYPGELDENERDLMHIAHIAELLE [T3P] | 2.14 |
| LYRGELDENERDLMHIAHIAELLE [T3R] | 1.98 |
| LYKGELDENERDLMHIAHIAELLE [T3K] | 2.16 |
| LYHGELDENERDLMHIAHIAELLE [T3H] | 2.08 |
| LYIGELDENERDLMHIAHIAELLE [T3I] | 2.15 |
| LYFGELDENERDLMHIAHIAELLE [T3F] | 3.07 |
| LYVGELDENERDLMHIAHIAELLE [T3V] | 2.21 |
| LYYGELDENERDLMHIAHIAELLE [T3Y] | 2.08 |
| LYLGELDENERDLMHIAHIAELLE [T3L] | 1.94 |
| LYEGELDENERDLMHIAHIAELLE [T3E] | 2.98 |
| LYSGELDENERDLMHIAHIAELLE [T3S] | 2.61 |
| LYGGELDENERDLMHIAHIAELLE [T3G] | 1.91 |
| LYWGELDENERDLMHIAHIAELLE [T3W] | 1.54 |
| LYNGELDENERDLMHIAHIAELLE [T3N] | 2.25 |
| LYDGELDENERDLMHIAHIAELLE [T3D] | 3 |
| LHTGELDENERDLMHIAHIAELLE [Y2H] | 3.8 |
| LLTGELDENERDLMHIAHIAELLE [Y2L] | 2.37 |
| LGTGELDENERDLMHIAHIAELLE [Y2G] | 3.25 |
| LATGELDENERDLMHIAHIAELLE [Y2A] | 2.73 |
| LQTGELDENERDLMHIAHIAELLE [Y2Q] | 3.01 |
| LKTGELDENERDLMHIAHIAELLE [Y2K] | 2.74 |
| LDTGELDENERDLMHIAHIAELLE [Y2D] | 3.68 |
| LSTGELDENERDLMHIAHIAELLE [Y2S] | 3.34 |
| LFTGELDENERDLMHIAHIAELLE [Y2F] | 2.78 |

| Variant | protein stability index |
| --- | --- |
| LPTGELDENERDLMHIAHIAELLE [Y2P] | 3.2 |
| LITGELDENERDLMHIAHIAELLE [Y2I] | 2.54 |
| LWTGELDENERDLMHIAHIAELLE [Y2W] | 1.69 |
| LVTGELDENERDLMHIAHIAELLE [Y2V] | 3.45 |
| LMTGELDENERDLMHIAHIAELLE [Y2M] | 2.73 |
| LRTGELDENERDLMHIAHIAELLE [Y2R] | 3.21 |
| LCTGELDENERDLMHIAHIAELLE [Y2C] | 2.04 |
| LNTGELDENERDLMHIAHIAELLE [Y2N] | 3.17 |
| LETGELDENERDLMHIAHIAELLE [Y2E] | 3.49 |
| LTTGELDENERDLMHIAHIAELLE [Y2T] | 3.44 |
| LYTGENDENERDLMHIAHIAELLE [L6N] | 3.49 |
| LYTGEGDENERDLMHIAHIAELLE [L6G] | 3.11 |
| LYTGEMDENERDLMHIAHIAELLE [L6M] | 2.56 |
| LYTGEIDENERDLMHIAHIAELLE [L6I] | 2.64 |
| LYTGEHDENERDLMHIAHIAELLE [L6H] | 2.96 |
| LYTGEFDENERDLMHIAHIAELLE [L6F] | 2.46 |
| LYTGEDDENERDLMHIAHIAELLE [L6D] | 3.27 |
| LYTGECDENERDLMHIAHIAELLE [L6C] | 2.91 |
| LYTGEADENERDLMHIAHIAELLE [L6A] | 3.38 |
| LYTGEEDENERDLMHIAHIAELLE [L6E] | 3.4 |
| LYTGEPDENERDLMHIAHIAELLE [L6P] | 2.95 |
| LYTGEKDENERDLMHIAHIAELLE [L6K] | 3.31 |
